Target: N-terminal(Lon)-LotP.His ('Candidatus Liberibacter asiaticus')
Test: SEC

Substance: N-terminal(Lon)-LotP.His
- stoichiometry N: 2
